Where no end group is shown, it is not given here.

These results are taken from US7622265B2, “Methods and compositions for modulating prostasin” (Genentech, Inc., priority 2005, dated 2009).

Assay [1] deals with T1, prostasin (Homo sapiens, UniProt Q16651). As to the kind of experiment: Enzyme inhibition assay (amidolytic activity of prostasin towards S2765). Also noted: made in house; host or cells: CHO cells (transient transfection, pRK5E); purified from conditioned medium on aprotinin-agarose. Particulars: for inhibition of prostasin enzymatic activity (in words): substrate S2765. Format: biochemical. How it is done: The increase in absorbance at 405 nm was monitored on a kinetic microplate reader (Molecular Devices, Sunnyvale, Calif.). The linear rates of the increase in absorbance were expressed as percentage activities (100%×vi/v0). […] At least three independent experiments were performed for each inhibitor.
Target sequence in this assay (Q16651 45-322 limits assumed, other chains not shown): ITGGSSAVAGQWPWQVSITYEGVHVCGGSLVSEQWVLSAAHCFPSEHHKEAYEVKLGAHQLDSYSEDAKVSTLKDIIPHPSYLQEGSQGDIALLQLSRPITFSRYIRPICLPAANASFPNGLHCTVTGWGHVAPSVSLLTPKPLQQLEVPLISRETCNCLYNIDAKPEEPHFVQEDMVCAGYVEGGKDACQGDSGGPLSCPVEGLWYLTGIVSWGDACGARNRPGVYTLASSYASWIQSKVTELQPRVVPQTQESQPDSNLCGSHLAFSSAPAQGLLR

Assay [2] has as its target T1, prostasin. Particulars: purified enzyme system; cited from earlier work.
Target sequence in this assay (Q16651 33-343, species assumed): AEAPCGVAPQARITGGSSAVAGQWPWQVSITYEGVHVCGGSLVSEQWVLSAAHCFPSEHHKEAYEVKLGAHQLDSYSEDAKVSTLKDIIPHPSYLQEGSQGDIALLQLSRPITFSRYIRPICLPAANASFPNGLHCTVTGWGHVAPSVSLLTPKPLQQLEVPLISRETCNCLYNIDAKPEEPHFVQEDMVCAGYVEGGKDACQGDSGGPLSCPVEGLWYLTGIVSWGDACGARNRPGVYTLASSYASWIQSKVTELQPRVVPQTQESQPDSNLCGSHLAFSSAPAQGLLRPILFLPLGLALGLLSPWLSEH
The target in assay [3] is T1, prostasin. As to the kind of experiment: Prostasin binding assay (complex formation, immunoblotting). On the set-up: made in house; host or cells: CHO cells (transient transfection, pRK5E); purified from conditioned medium on aprotinin-agarose. Particulars: 20 nM sHAI-1B, 37° C., 0.5 or 2 h, immunoblot with anti-HAI-1B polyclonal antibody. How it is done: Prostasin binding assay—Purified prostasin and sHAI-1B were diluted in 20 mM Tris-Cl, pH 9.0 containing 0.01% Triton X-100 (TT buffer) to the final concentration as indicated. The mixture was incubated at 37° C. for 0.5 h or 2 h and the reaction was stopped by addition of SDS sample buffer with DTT. 30 μl of each sample was analyzed by immunoblotting.
Prostasin and sHAI-1B form 1:1 complexes—Soluble prostasin was purified from conditioned medium of CHO cells transiently transfected with full-length prostasin. […] Prostasin was incubated with sHAI-1B comprising the entire extracellular domain of HAI-1B (Kirchhofer, Peek et al. 2003) at different molar ratios (FIG.2A). Increasing concentrations of prostasin shifted the sHAI-1B band (55 kDa) to the higher molecular mass species of 85 kDa, indicating the formation of prostasin:sHAI-1B complexes. At a 10-fold molar excess of prostasin, almost all sHAI-1B was bound to prostasin. Immunoblotting with anti-prostasin antibody confirmed that the 85 kDa band comprised complexes of sHAI-1B and prostasin (data not shown).
Target sequence in this assay (Q16651 45-322 limits assumed, other chains not shown): as the sequence (Q16651 45-322 limits assumed, other chains not shown) above

As to “APPI: Alzheimer's amyloid β protein precursor inhibitor, a Kunitz domain (VREVCSEQAETGPCRAMISRWYFDVTEGKCAPFFYGGCGGNRNNFDTEEYCMAVCGSA; ends and bridges not checked; cysteine pairing not given here) [reference compound]”, the “inhibition of prostasin enzymatic activity (in words)” value in assay [1] (prostasin 3 nM) was “did not inhibit prostasin”. Besides, the IC50 in assay [1] (prostasin 3 nM, substrate S2765 0.05 mM, TT buffer, 20 min preincubation at room temperature, averages ± S.D. of at least three independent experiments, read-out: IC50 (nM), effects of inhibitors on the activity of prostasin) is over 1000 nM.

B1: HAI-2: hepatocyte growth factor activator inhibitor-2, a bi-Kunitz type serine protease inhibitor (protein, UniProt O43291 28-252, looked up)
Kunitz-type protease …: ADRERSIHDFCLVSKVVGRCRASMPRWWYNVTDGSCQLFVYGGCDGNSNNYLTKEECLKKCATVTENATGDLATSRNAADSSVPSAPRRQDSEDHSSDMFNYEEYCTANAVTGPCRASFPRWYFDVERNSCNNFIYGGCRGNKNSYRSEEACMLRCFRQQENPPLPLGSKVVVLAGLFVMVLILFLGASMVYLIRVARRNQERALRTVWSSGDDKEQLVKNTYVL
As to B1, the “inhibition of prostasin activity (in words)” value in assay [2] was “potently inhibit prostasin activity”.

B2: sHAI-1B K401A: KD2 mutant of sHAI-1B, P1 residue Lys401 (in KD2) changed to Ala (protein)
chain: GPPPAPPGLPAGADCLNSFTAGVPGFVLDTNASVSNGATFLESPTVRRGWDCVRACCTTQNCNLALVELQPDRGEDAIAACFLINCLYEQNFVCKFAPREGFINYLTREVYRSYRQLRTQGFGGSGIPKAWAGIDLKVQPQEPLVLKDVENTDWRLLRGDTDVRVERKDPNQVELWGLKEGTYLFQLTVTSSDHPEDTANVTVTVLSTKQTEDYCLASNKVGRCRGSFPRWYYDPTEQICKSFVYGGCLGNKNNYLREEECILACRGVQGGPLRGSSGAQATFPQGPSMERRHPVCSGTCQPTQFRCSNGCCIDSFLECDDTPNCPDASDEAACEKYTSGFDELQRIHFPSDKGHCVDLPDTGLCAESIPRWYYNPFSEHCARFTYGGCYGNKNNFEEEQQCLESCRGISKKDVFGLRREIPIPSTGSVE
Regarding B2, the “inhibition of prostasin enzymatic activity (in words)” value in assay [1] (prostasin 3 nM) was “inhibitory potency comparable to the wildtype”. Besides, the “complex formation with prostasin” value in assay [3] is “still formed an 85 kDa complex with prostasin”.

B3: sHAI-1B R260A: KD1 mutant of sHAI-1B, P1 residue Arg260 (in KD1) changed to Ala (protein)
chain: GPPPAPPGLPAGADCLNSFTAGVPGFVLDTNASVSNGATFLESPTVRRGWDCVRACCTTQNCNLALVELQPDRGEDAIAACFLINCLYEQNFVCKFAPREGFINYLTREVYRSYRQLRTQGFGGSGIPKAWAGIDLKVQPQEPLVLKDVENTDWRLLRGDTDVRVERKDPNQVELWGLKEGTYLFQLTVTSSDHPEDTANVTVTVLSTKQTEDYCLASNKVGRCAGSFPRWYYDPTEQICKSFVYGGCLGNKNNYLREEECILACRGVQGGPLRGSSGAQATFPQGPSMERRHPVCSGTCQPTQFRCSNGCCIDSFLECDDTPNCPDASDEAACEKYTSGFDELQRIHFPSDKGHCVDLPDTGLCKESIPRWYYNPFSEHCARFTYGGCYGNKNNFEEEQQCLESCRGISKKDVFGLRREIPIPSTGSVE
As for B3, the “fold less potent than wildtype sHAI-1B” value in assay [1] (IC50 compared with wildtype sHAI-1B) is reported as “at least 18 fold”. Moreover, the “complex formation with prostasin” value in assay [3] is on record as “did not”.
